Earlier results as cited in article PMC8859281.

What was measured:
[1] = molecular target: prokineticin receptor 2 (Homo sapiens) (UniProt Q8NFJ6)
[2] = molecular target: prokineticin receptor 1 (Homo sapiens) (UniProt Q8TCW9)
κ-opioid receptor = κ-opioid receptor (UniProt P41145)
κ-opioid receptor, sequence (P41145 whole entry): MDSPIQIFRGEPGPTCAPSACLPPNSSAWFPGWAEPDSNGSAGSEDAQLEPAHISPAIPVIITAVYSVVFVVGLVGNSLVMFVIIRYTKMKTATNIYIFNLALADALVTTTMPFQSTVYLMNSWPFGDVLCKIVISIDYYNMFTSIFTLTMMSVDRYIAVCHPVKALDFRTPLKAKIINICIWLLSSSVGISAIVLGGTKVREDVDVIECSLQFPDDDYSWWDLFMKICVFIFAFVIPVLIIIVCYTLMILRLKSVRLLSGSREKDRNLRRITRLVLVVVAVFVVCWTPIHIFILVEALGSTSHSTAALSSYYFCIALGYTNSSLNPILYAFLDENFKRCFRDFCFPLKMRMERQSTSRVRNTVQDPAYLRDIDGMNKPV

MIT1, sequence (P25687 whole entry): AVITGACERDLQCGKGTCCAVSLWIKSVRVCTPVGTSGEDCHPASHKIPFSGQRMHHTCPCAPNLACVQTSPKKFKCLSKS
prokineticin receptor 2 (Homo sapiens), sequence (Q8NFJ6 whole entry): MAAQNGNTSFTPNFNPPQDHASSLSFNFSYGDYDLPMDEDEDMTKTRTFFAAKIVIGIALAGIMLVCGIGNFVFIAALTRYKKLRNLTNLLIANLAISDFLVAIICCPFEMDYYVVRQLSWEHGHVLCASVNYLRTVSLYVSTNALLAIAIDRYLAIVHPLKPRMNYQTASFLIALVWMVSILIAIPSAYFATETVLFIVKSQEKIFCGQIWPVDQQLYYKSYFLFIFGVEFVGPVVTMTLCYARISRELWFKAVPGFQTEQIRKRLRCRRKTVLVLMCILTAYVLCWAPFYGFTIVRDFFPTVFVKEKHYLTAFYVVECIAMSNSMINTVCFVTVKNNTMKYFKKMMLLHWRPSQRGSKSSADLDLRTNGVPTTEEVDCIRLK
prokineticin receptor 1 (Homo sapiens), sequence (Q8TCW9 whole entry): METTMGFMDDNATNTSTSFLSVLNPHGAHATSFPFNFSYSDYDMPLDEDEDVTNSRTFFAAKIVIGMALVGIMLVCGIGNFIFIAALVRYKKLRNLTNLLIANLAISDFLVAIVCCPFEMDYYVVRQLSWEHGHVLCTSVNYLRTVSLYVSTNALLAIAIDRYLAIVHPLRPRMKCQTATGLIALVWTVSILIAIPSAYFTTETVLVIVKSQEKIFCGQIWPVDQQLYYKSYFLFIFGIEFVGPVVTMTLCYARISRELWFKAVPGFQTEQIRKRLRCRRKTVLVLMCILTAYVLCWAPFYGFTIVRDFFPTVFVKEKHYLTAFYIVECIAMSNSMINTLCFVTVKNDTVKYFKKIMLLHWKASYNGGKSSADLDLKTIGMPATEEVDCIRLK

Row | Substance | Ki [1] [nM] | Ki [2] [nM] | Ki (κ-opioid receptor) [nM]
1 | MIT1 (from UniProt P25687) | 0.67 | 4.1 | 
2 | dynorphin A 1-17 (from UniProt P01213) |  |  | 0.28
